Data from patent US20240132589A1 (ONCORESPONSE, published 2024).
Values belong to the binder of their own block, whether it stands above or below them.

Assays:
[1] = target: T1, Human LILRB2 on primary human myeloid cells (human, UniProt Q8N423 22-597); experiment: flow cytometry, AF647-conjugated antibody on human M0 macrophages (7 subjects), average
T1 construct: whole, on cells; the cell type is named under assay; also called LILRB2 on monocytes, M0 and M2c macrophages, myeloid dendritic cells, neutrophils
T1 sequence (Q8N423 22-597): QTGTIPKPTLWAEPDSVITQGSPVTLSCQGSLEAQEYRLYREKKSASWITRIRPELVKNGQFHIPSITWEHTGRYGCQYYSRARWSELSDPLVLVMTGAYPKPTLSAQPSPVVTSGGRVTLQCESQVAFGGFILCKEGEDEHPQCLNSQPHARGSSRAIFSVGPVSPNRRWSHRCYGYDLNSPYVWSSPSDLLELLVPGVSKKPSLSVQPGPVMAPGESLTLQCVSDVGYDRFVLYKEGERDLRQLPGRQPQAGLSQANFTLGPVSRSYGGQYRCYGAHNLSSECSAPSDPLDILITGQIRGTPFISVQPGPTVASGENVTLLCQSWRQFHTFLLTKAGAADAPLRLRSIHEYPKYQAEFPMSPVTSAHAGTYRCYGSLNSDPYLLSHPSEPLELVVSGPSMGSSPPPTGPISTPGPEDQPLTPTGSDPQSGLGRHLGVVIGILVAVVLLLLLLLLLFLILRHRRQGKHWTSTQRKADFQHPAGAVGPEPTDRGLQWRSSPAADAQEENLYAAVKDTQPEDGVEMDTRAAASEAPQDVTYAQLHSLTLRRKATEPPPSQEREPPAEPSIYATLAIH
Procedure: (§1) Anti-LILRB2 antibodies were evaluated for their ability to bind myeloid cell subsets expressing LILRB2, including monocytes, M0 macrophages, and M2c macrophages. M2c macrophages are used as a surrogate for tumor-associated macrophages, a suppressive macrophage commonly found in the tumor microenvironment. Frozen monocytes were removed from storage in vapor phase liquid nitrogen and thawed by gentle swirling in a water bath at 37° C., then resuspended in X-VIVO™ 15 media with 10% FBS. PBMC were placed in a 15 mL conical tube and centrifuged at 300×g for 5 minutes, then supernatant was removed. Cells were resuspended in Assay Medium (X-VIVO™ 15+10% FBS) at a cell density of 2.5×10⁵ cells/mL. Cells were plated into 96-well flat bottom plates at 100 μL/well (25K cells/well). M0 and M2c macrophages were generated as described in Example 10 and collected from flasks by incubation for 15 min at RT in Macrophage Detachment Solution DXF, then removed from the flask into X-VIVO™ 15 medium. Following centrifugation, the cells were resuspended in FACS Blocking Buffer D (FACS Buffer+10% FBS+0.5 mg/mL human IgG1) then incubated at 4° C. for 30 minutes. […]

[2] = target: T1, Human LILRB2 on primary human myeloid …; experiment: flow cytometry, AF647-conjugated antibody on human M2c macrophages (10 subjects), average
Procedure: as §1

[3] = target: T2, Recombinant human LILRB2 protein (ELISA antigen) (human, UniProt Q8N423 22-460); experiment: ELISA, plate-coated recombinant human LILRB2
T2 construct: also called LILRB2-His; recombinant LILRB2
T2 sequence (Q8N423 other isoform, or with tags, fused parts or gaps limits assumed): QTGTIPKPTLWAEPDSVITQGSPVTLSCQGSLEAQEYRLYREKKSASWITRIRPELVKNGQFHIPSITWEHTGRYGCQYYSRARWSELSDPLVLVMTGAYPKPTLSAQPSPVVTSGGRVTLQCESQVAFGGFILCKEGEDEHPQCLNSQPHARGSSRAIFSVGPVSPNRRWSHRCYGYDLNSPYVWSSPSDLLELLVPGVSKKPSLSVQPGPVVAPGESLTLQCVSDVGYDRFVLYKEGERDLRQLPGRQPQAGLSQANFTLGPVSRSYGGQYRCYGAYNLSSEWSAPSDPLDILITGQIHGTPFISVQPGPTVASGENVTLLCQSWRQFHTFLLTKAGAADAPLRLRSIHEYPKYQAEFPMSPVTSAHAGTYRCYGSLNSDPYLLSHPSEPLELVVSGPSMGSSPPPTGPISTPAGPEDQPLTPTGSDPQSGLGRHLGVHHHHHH
Procedure: To confirm binding to human and cynomolgus LILRB2, antibodies in supernatants were evaluated for binding by enzyme-linked immunosorbent assay (ELISA). Recombinant LILRB2 proteins (human: SEQ ID NO: 48; cynomolgus) were diluted in PBS to 2 μg/mL and added to 384-well high-binding ELISA plates (Greiner Bio-One Microlon™) at 25 μL/well and incubated at 4° C. overnight. The plates were washed three times with Wash Buffer (0.05% Tween® 20 in PBS), using a microplate washer and then blocked with 90 μL/well of ELISA Blocking Buffer A (1% BSA in PBS) for 1 hour at room temperature (RT). After blocking, 25 μL/well of LILRB2 antibodies or isotype control were added to the plates and incubated for 1 hour at RT. After primary antibody binding, plates were washed three times with Wash Buffer using a microplate washer. Secondary detection antibody (HRP-goat anti-rabbit Fab fragment) was diluted to 1:3000 in assay diluent (1% BSA in PBS) and 25 μL/well was added to plates and incubated at RT protected from light for 1 hour. Following incubation, plates were washed four times with Wash Buffer, using a microplate washer. […] After development, the reaction was stopped by addition of 25 μL/well of 0.3 M HCl, and plates were read using an EnVision (Perkin Elmer) microplate reader at 450 nm. EC₅₀ values were calculated based on log concentration of the primary antibodies at optical density at 450 nm.

LILRB2-Fc protein = target: T3, LILRB2-Fc protein (human, UniProt Q8N423 22-460, limits assumed); experiment: blocking ELISA: LILRB2-Fc pre-incubated with antibody titration, binding to coated monomer HLA-G
T3 construct: also called human LILRB2-Fc; not shown: Fc part
T3 sequence (Q8N423 22-460 limits assumed): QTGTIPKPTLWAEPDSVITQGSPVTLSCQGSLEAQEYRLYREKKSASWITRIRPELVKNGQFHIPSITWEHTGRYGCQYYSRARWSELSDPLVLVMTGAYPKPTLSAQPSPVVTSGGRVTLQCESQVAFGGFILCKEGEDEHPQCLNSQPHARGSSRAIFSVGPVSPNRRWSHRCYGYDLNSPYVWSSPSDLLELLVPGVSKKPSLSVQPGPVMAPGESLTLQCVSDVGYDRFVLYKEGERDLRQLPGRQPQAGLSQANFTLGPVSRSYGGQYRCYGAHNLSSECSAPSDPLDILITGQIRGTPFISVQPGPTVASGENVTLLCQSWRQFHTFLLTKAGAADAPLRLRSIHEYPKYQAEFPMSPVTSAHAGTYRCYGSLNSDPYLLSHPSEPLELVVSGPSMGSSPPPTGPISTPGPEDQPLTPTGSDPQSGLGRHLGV
Procedure: Tumor-associated HLA-G is an HLA Class I ligand for LILRB2. Binding of HLA-G to LILRB2 induces an immune suppressive signal in LILRB2 expressing myeloid cells. To determine if the anti-LILRB2 antibodies block the HLA-G-LILRB2 interaction and prevent the induction of an inhibitory signal, blocking ELISA assays in a dose titration were performed. 384-well plates were coated with monomer HLA-G (Fred Hutchinson Cancer Research Center, No. bHLA-G) at a concentration of 5 μg/mL, diluted in PBS, then plates were incubated at RT for 1 hour. Plates were rinsed with Wash Buffer three times, then blocked with Blocking Buffer A for 30 minutes at RT. During blocking incubation step, LILRB2-Fc protein and antibody titrations were prepared in Blocking Buffer A. LILRB2-Fc protein was then incubated with antibody titrations for 30 minutes at RT to allow for binding prior to addition onto plate. Plates were rinsed three times with Wash Buffer, then 25 μL of protein/antibody mixture was added per well and incubated for 1 hour at RT. Following antibody incubation, plates were washed three times with Wash Buffer. Anti-human IgG Fc-HRP secondary antibody was diluted and added at 25 μL/well. Plates were incubated in the dark for 1 hour at RT. Following secondary antibody incubation, plates were washed four times with Wash Buffer. […] Absorbance was read at 450 nm using the Envision. […]

[4] = target: T2, Recombinant human LILRB2 protein (ELISA …); experiment: ELISA, immobilized LILRB2-His; conditioned media of transient transfections
Procedure: To confirm binding to human and cynomolgus LILRB2, antibodies in supernatants were evaluated for binding by enzyme-linked immunosorbent assay (ELISA). Recombinant LILRB2 proteins (human: SEQ ID NO: 48; cynomolgus) were diluted in PBS to 2 μg/mL and added to 384-well high-binding ELISA plates (Greiner Bio-One Microlon™) at 25 μL/well and incubated at 4° C. overnight. The plates were washed three times with Wash Buffer (0.05% Tween® 20 in PBS), using a microplate washer and then blocked with 90 μL/well of ELISA Blocking Buffer A (1% BSA in PBS) for 1 hour at room temperature (RT). After blocking, 25 μL/well of LILRB2 antibodies or isotype control were added to the plates and incubated for 1 hour at RT. After primary antibody binding, plates were washed three times with Wash Buffer using a microplate washer. Secondary detection antibody (HRP-goat anti-rabbit Fab fragment) was diluted to 1:3000 in assay diluent (1% BSA in PBS) and 25 μL/well was added to plates and incubated at RT protected from light for 1 hour. Following incubation, plates were washed four times with Wash Buffer, using a microplate washer. After removal of the final wash, 25 μL/well of 1-Step™ Ultra TMB-ELISA Substrate Solution (Thermo Fisher, No. 34028) was added and plates were incubated for 5-10 min at RT, protected from light. After development, the reaction was stopped by addition of 25 μL/well of 0.3 M HCl, and plates were read using an EnVision (Perkin Elmer) microplate reader at 450 nm. EC₅₀ values were calculated based on log concentration of the primary antibodies at optical density at 450 nm.
Twenty-five IgG4 variants were expressed in mammalian cell culture as a combinatorial library of the five light and five heavy chains. In addition, B2A-IgG4 was included as a transfection control. The conditioned media from these transient transfections were assayed for human IgG concentration. A plate-based ELISA (see Example 2) was performed in which LILRB2-His was immobilized, and binding of humanized mAb variants was detected via an anti-human IgG4 HRP-labeled secondary antibody. The parental rabbit/human chimera clone transfection served as the benchmark EC₅₀ positive control.

EC50 [1]: 0.0748 mg/L
EC50 [2]: 0.0243 mg/L
B1: B2H1-55 (antibody, V domains shown)
VH: EVQLLESGGGLVQPGTSLTLSCAASGFSLSTYAMSWVRQAPGKGLEWIGWIYNDGSTYYAAWAKGRFTISKDTSKTTLYLQITSLRAEDTATYFCAREGDYIGYFNIWGQGTLVTVSS
VL: DVVMTQTPSSVSAALGGTVTIKCQASQSIGSNLAWYQLKPGQRPKLLIYAAATLASGGSSRFKGSGSGTDFTLTISSLEPADAATYYCQSYVSGSSDVAFGGGTEVVVK
notes: Humanized variant, human IgG1 / kappa; also called humanized variant B2H1-55; humanized LILRB2 antibody B2H1-55

EC50 [3]: 0.00381 mg/L
B2: B2A-IgG1 (antibody)
heavy: not shown
light: DVVMTQTPSSVSAALGGTVTIKCQASQSIGSNLAWYQLKPGQRPKLLIYAAATLASGGSSRFKGSGSGTDFTLTISDLECADAATYYCQSYVSGSSDVAFGGGTEVVVKRTVAAPSVFIFPPSDEQLKSGTASVVCLLNNFYPREAKVQWKVDNALQSGNSQESVTEQDSKDSTYSLSSTLTLSKADYEKHKVYACEVTHQGLSSPVTKSFNRGEC
notes: Rabbit variable regions on human IgG1 / kappa constant regions; AF647-conjugated in some flow assays; also called B2A-IgG1 chimera; anti-LILRB2 B2A-IgG1

IC50 (LILRB2-Fc protein): 0.066 mg/L
EC50 [4]: 0.00274 mg/L
B3: B2A-IgG4 (antibody)
heavy: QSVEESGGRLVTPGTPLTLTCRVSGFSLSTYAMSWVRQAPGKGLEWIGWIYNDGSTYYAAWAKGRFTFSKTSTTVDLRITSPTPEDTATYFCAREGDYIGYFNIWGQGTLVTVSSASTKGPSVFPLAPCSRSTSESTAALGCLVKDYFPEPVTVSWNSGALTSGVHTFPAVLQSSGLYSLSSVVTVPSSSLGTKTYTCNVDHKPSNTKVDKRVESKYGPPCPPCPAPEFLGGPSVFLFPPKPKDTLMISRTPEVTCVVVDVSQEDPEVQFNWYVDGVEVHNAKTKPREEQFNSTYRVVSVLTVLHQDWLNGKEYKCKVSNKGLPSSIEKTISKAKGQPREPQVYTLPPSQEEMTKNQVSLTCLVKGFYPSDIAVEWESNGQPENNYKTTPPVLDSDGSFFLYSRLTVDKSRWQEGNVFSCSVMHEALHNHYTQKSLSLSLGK
light: DVVMTQTPSSVSAALGGTVTIKCQASQSIGSNLAWYQLKPGQRPKLLIYAAATLASGGSSRFKGSGSGTDFTLTISDLECADAATYYCQSYVSGSSDVAFGGGTEVVVKRTVAAPSVFIFPPSDEQLKSGTASVVCLLNNFYPREAKVQWKVDNALQSGNSQESVTEQDSKDSTYSLSSTLTLSKADYEKHKVYACEVTHQGLSSPVTKSFNRGEC
notes: Rabbit variable regions on human IgG4 / kappa constant regions; also called B2A-IgG4 chimera; Parent B2A-IgG4
